Measurements taken from the supplement of paper PMC7877785.
± gives the uncertainty stated by the source.

Assay: self-splicing fitness, log relative to wild type (ln ratio); higher = more splicing; Tetrahymena group I intron in knt gene, E. coli kanamycin selection, DiMSum; sequences stand for … in CUCUCU…GGAGGGAAAAGUUAUCAGGCAUGCACCUGGUAGCUAGUCUUUAAACCAAUAGAUUGCAUCGGUUUAAAAGGCAAGACCGUCAAAUUGCGGGAAAGGGGUCAACAGCCGUUCAGUACCAAGUCUCAGGGGAAACUUUGAGAUGGCCUUGCAAAGGGUAUGGUAAUAAGCUGACGGACAUGGUCCUAACCACGCAGCCAAGUCCUAAGUCAACAGAUCUUCUGUUGAUAUGGAUGCAGUUCACAGACUAAAUGUCGGUCGGGGAAGAUGUAUUCUUCUCAUAAGAUAUAGUCGGACCUCUCCUUAAUGGGAGCUAGCGGAUGAAGUGAUGCAACACUGGAGCCGCUGGGAACUAAUUUGUAUGCGAAAGUAUAUUGAUUAGUUUUGGAGUACUCGUGGUCG
Summary of the method: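 Library with all eight P1ex-region intron nucleotides randomised, intron inside the knt kanamycin-resistance gene on pET-22b(+), in E. coli BL21(DE3). Cells grew overnight at 37°C or 30°C on LB agar with or without 25 μg/mL kanamycin (plus 100 μg/mL carbenicillin, 50 μM IPTG, 0.2% rhamnose), in six replicate transformations. Pooled colonies were amplicon-sequenced on Illumina HiSeq 2500. DiMSum fitness is the error-weighted combination of wild-type-normalised replicate fold changes, kanamycin versus none.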

| Sequence | self-splicing fitness (ln) (30 °C) | self-splicing fitness (ln) (37 °C) |
| --- | --- | --- |
| UUGAAGCAAUAUUACGCGUG | -0.176 ± 0.07 | -0.123 ± 0.099 |
| CUUGAGCAAUAUUACGUGAC | -2.55 ± 0.24 | -1.08 ± 0.19 |
| CGGCAGCAAUAUUACGCAGC | -3.98 ± 0.34 | -1.71 ± 0.2 |
| AUUGAGCAAUAUUACGCUCU | -3.63 ± 0.24 | -2.27 ± 0.17 |
| AACUAGCAAUAUUACGCGUG | -1.53 ± 0.08 | -0.485 ± 0.09 |
| UCAAAGCAAUAUUACGGUUU | -3.06 ± 0.21 | -3 ± 0.27 |
| UAUUAGCAAUAUUACGGUAA | -2.24 ± 0.26 | -1.54 ± 0.23 |
| CCACAGCAAUAUUACGGGUU | -3.68 ± 0.16 | -2.58 ± 0.21 |
| UCGUAGCAAUAUUACGCUCG | -1.9 ± 0.16 | -1.2 ± 0.23 |
| CCACAGCAAUAUUACGCGUC | -3.13 ± 0.16 | -3.14 ± 0.27 |
| AGGCAGCAAUAUUACGAGCG | -1.13 ± 0.074 | 0.237 ± 0.088 |
| AAUGAGCAAUAUUACGCAUU | -3.92 ± 0.47 | -2.74 ± 0.36 |
| GACUAGCAAUAUUACGAGUU | -4.75 ± 0.32 | -2.74 ± 0.3 |
| GGCAAGCAAUAUUACGCGUA | -0.585 ± 0.065 | -0.212 ± 0.076 |
| UUCCAGCAAUAUUACGCCAG | -1.93 ± 0.15 | -0.95 ± 0.15 |
| GAUGAGCAAUAUUACGAACA | -3.07 ± 0.47 | -1.54 ± 0.24 |
| UCUGAGCAAUAUUACGUGGU | -2.58 ± 0.13 | -2.21 ± 0.15 |
| UUGAAGCAAUAUUACGGGAA | -0.195 ± 0.11 | -0.634 ± 0.15 |
| CUCUAGCAAUAUUACGUCCC | -2.69 ± 0.27 | -3.71 ± 0.39 |
| CUUAAGCAAUAUUACGCCCA | -2.46 ± 0.32 | -1.69 ± 0.48 |
| UCAUAGCAAUAUUACGGCCG | -0.395 ± 0.15 | 0.157 ± 0.16 |

| Sequence | self-splicing fitness (ln) (30 °C) | self-splicing fitness (ln) (37 °C) |
| --- | --- | --- |
| GAGCAGCAAUAUUACGGUGA | -2.25 ± 0.12 | -0.646 ± 0.13 |
| UUUAAGCAAUAUUACGUCAU | -3.03 ± 0.22 | -1.08 ± 0.15 |
| UUGCAGCAAUAUUACGCGAA | -0.925 ± 0.16 | -0.846 ± 0.14 |
| UUGCAGCAAUAUUACGUUCG | -1.16 ± 0.049 | -0.636 ± 0.071 |
| UGGGAGCAAUAUUACGCGGA |  | -2.73 ± 0.34 |
| CGACAGCAAUAUUACGGAGU | -3.91 ± 0.2 | -2.53 ± 0.14 |
| AUAGAGCAAUAUUACGGGAU | -1.54 ± 0.11 | -1.87 ± 0.2 |
| UCCUAGCAAUAUUACGUGAA | -0.777 ± 0.078 | -0.552 ± 0.1 |
| CGCCAGCAAUAUUACGUACC | -3.78 ± 0.29 | -2.74 ± 0.3 |
| CGGUAGCAAUAUUACGACUU | -0.479 ± 0.094 | 0.365 ± 0.11 |
| GCUUAGCAAUAUUACGUAGG | -1.51 ± 0.11 | -0.916 ± 0.14 |
| GAGGAGCAAUAUUACGUAGG | -2.42 ± 0.42 | -1.27 ± 0.23 |
| ACAAAGCAAUAUUACGAUAU | -2.1 ± 0.088 | -1.15 ± 0.1 |
| GUCUAGCAAUAUUACGACCU | -2.33 ± 0.21 | -1.21 ± 0.17 |
| UAGAAGCAAUAUUACGAGGU |  | -2.14 ± 0.2 |
| CUACAGCAAUAUUACGUGGA | -2.58 ± 0.12 | -3.11 ± 0.21 |
| ACCGAGCAAUAUUACGGGCU | -3.3 ± 0.16 | -2.59 ± 0.19 |
| CGAUAGCAAUAUUACGCGUU | -3.13 ± 0.24 | -2.51 ± 0.22 |
| CGGGAGCAAUAUUACGGGCC | -1.81 ± 0.21 |  |
| UCGGAGCAAUAUUACGGGGA | -1.76 ± 0.2 | -1.13 ± 0.19 |
| UCAAAGCAAUAUUACGCUCU | -3.71 ± 0.27 | -2.69 ± 0.26 |

| Sequence | self-splicing fitness (ln) (30 °C) | self-splicing fitness (ln) (37 °C) |
| --- | --- | --- |
| ACCAAGCAAUAUUACGCGUG | -2.41 ± 0.083 | -1.19 ± 0.07 |
| AGCAAGCAAUAUUACGUUAU | -2.78 ± 0.11 | -1.54 ± 0.12 |
| CUGAAGCAAUAUUACGUAAU | -2.87 ± 0.24 | -2.17 ± 0.5 |
| GGCAAGCAAUAUUACGAAAC | -0.925 ± 0.13 | -0.903 ± 0.16 |
| UCACAGCAAUAUUACGGGCA | -0.496 ± 0.075 | -0.337 ± 0.083 |
| UGUCAGCAAUAUUACGCAUG | -0.692 ± 0.077 | 0.415 ± 0.097 |
| GCACAGCAAUAUUACGCCAC |  | -1.97 ± 0.2 |
| ACACAGCAAUAUUACGAAGG | -1.75 ± 0.061 | -2.18 ± 0.11 |
| GACCAGCAAUAUUACGUUCA | -0.884 ± 0.1 | -0.163 ± 0.097 |
| AUUGAGCAAUAUUACGGCGU | -0.734 ± 0.11 | 0.573 ± 0.17 |
| UGUAAGCAAUAUUACGUGAC | -3.47 ± 0.33 | -1.77 ± 0.23 |
| CUCAAGCAAUAUUACGGAUA | -2.72 ± 0.24 | -2.32 ± 0.28 |
| UACCAGCAAUAUUACGUAAG | -3.73 ± 0.15 | -1.99 ± 0.15 |
| UGACAGCAAUAUUACGAUAG | -1.49 ± 0.07 | -0.347 ± 0.076 |
| GUUGAGCAAUAUUACGAAUG |  | -1.68 ± 0.44 |
| AUAUAGCAAUAUUACGGUAC | -3.69 ± 0.39 | -2.59 ± 0.22 |
| UGGGAGCAAUAUUACGUCUA | -1.22 ± 0.12 | -0.187 ± 0.16 |
| GCAGAGCAAUAUUACGUAUU | -3.82 ± 0.23 | -1.9 ± 0.16 |
| GUGCAGCAAUAUUACGUAGG | -1.28 ± 0.11 | -1.05 ± 0.16 |
